Stoichiometry N, stability and Kd data for three substances are collected here from PMC11789008 (Proceedings of the National Academy of Sciences of the …, 2025).

Data set [1] addresses SARS-CoV-2 spike ectodomain trimer with the BA.2-type RBD (SARS-CoV-2) (UniProt P0DTC2). Kind of data set: cryo-EM structure.
The conditions of data set [2]: powder and solution form.
A further data set has as its target SARS-CoV-2 spike RBD, WT (Severe acute respiratory syndrome coronavirus 2, UniProt P0DTC2). The experiment in a line: biochemical.
In data set [3] the target is SARS-CoV-2 spike ectodomain trimer with the BA.5-type RBD (SARS-CoV-2) (UniProt P0DTC2). The experiment in a line: cryo-EM structure.

No end group written: not given here.

Regarding “SARS-CoV-2 spike ectodomain trimer with the BA.2-type RBD (from UniProt P0DTC2 13-1208) (domain or fragment)”, in data set [1], the stoichiometry N was determined as 3.

Turning to “DKLWILQKIYEIMVRLDEEGHGEASLMVSDLIYEFMKRD [CeSPIACE]”, the stability entry in data set [2] was “stability has been confirmed in powder and solution form”. On SARS-CoV-2 spike RBD, WT, this substance came in with a Kd of 0.246 ± 0.002 nM.

“SARS-CoV-2 spike ectodomain trimer with the BA.5-type RBD (from UniProt P0DTC2 13-1208) (domain or fragment)”: the stoichiometry N in data set [3] was 3.
